Columns and labels:
ER, RARα and RXRα LBDs = experiment: GST pull-down of TIF2 polypeptides with NR LBDs; assay type: binding; settings: in vitro, with or without 10^−6 M ligand
Procedure, shortened: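 In vitro GST-fusion pull-downs tested TIF2 deletion or point-mutant polypeptides against ER or RARα LBDs. Point-mutant binding was quantified relative to a TIF2.1 wildtype standard. Values are means of at least three experiments with SD.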

[1] = system: CBP (residues 1872 to 2165); experiment: GST-CBP pull-down of TIF2 polypeptides; assay type: binding
Method: (d) Mapping of the CBP-interacting domain of TIF2. GST puld own experiments were performed with ^35S-labeled in-vitro-translated TIF2 polypeptides and bacterially produced GST and GST-CBP (expressing CBP residues 1872 to 2165).
(c) Interaction of TIF2 AF-1 mutants with CBP in vitro. GST pull-down experiments were performed with ^35S-labeled in-vitro-translated GAL-TIF2 fusion proteins and bacterially produced GST and GST-CBP.
(c) Interaction of TIF2.13 wildtype and TIF2.13 mutants with CBP in vitro. GST pull-down experiments were performed with ^35S-labeled in-vitro-translated VP16-TIF2.13 polypeptides and bacterially produced GST and GST-CBP.
(§1) Furthermore, it was reported that SRC-1, which belongs to the same gene family as TIF2, interacts with CBP and p300 (Kamei, Y. et al., Cell 85:403-414 (1996); Yao, T. P. et al., Proc. Natl. Acad. Sci. USA 93:10626-10631 (1996); Hanstein, B., et al., Proc. Natl. Acad Sci USA 93:11540-11545 (1996)). Using GST-fusion protein-based interaction and animal cell-based two hybrid assays, we therefore analyzed whether TIF2 could also interact with CBP. […] A GST-CBP fusion protein was expressed in E. coli and used for puU-down assays with in vitro translated TIF2 polypeptides (FIG. 7d).

GAL-CBP = experiment: two hybrid analysis of CBP-TIF2 interaction in HeLa cells; assay type: cell-based
Method: (e) Two hybrid analysis of the CBP-TIF2 interaction in mammalian cells in vivo. HeLa cells were transfected with 0.2 μg of the GAL4 or GALA-CBP (expressing CBP residues 1872 to 2165) expression vectors together with 0.2 μg of the VP16 or VPI6-TF2 expression vectors in the presence of 2 μg of (17m)5-TATA-CAT reporter plasmid. Fold induction relative to the GAL-CBP activity is indicated. The mean of three experiments is shown; in each case, values varied by less than ±20%.
HeLa cells were transfected with 0.2 μg of GAL4 or GAL-CBP expression vectors together with 0.2 μg of VP16 or VP16-TIF2.13 expression vectors in the presence of 1 μg of (17m)5-TATA-CAT reporter plasmid. Data are represented as fold induction of the activity seen with GAL-CBP alone. The mean and standard, deviation obtained from ten experiments are shown. The expression levels were confirmed by Western blotting with antibodies directed against GAL4 DBD and VP16 AAD (data not shown).
as §1

[2] = target: T1, GST-hRARα(DEF) (pGEX2T-hRARα(DEF), amino acids 153-462) (human, UniProt P10276 153-462); experiment: GST pull-down with 35S in-vitro-translated TIF2 polypeptides, with or without 10^-6 M all-trans-retinoic acid
T1 construct: range 153-462; Bacterially produced; also called GST-RAR; GST-RARα(DEF); not shown: glutathione-S-transferase (GST) of pGEX2T (Pharmacia)
T1 sequence (looked up): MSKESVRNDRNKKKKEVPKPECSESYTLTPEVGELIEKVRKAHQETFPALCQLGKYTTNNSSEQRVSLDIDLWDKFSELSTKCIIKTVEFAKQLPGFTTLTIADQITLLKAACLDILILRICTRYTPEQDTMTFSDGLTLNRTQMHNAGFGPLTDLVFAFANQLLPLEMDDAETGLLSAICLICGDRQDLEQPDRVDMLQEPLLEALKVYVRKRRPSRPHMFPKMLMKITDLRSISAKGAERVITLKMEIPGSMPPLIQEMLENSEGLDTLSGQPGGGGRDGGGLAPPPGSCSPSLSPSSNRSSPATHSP

B1: TIF2.2 (TIF2 amino acids 1288-1464) (other)
chain: NPRIPQANAQQFPFPPNYGISQQPDPGFTGATTPQSPLMSPRMAHTQSPMMQQSQANPAYQAPSDINGWAQGNMGGNSMFSQQSPPHFGQQANTSMYSNNMNINVSMATNTGGMSSMNQMTGQISMTSVTSVSTSGLSSMGPEQVNDPALRGGNLFPNQLPGMDMIKQEGDTTRKYC
notes: In-vitro-translated; also called AD2
ER, RARα and RXRα LBDs
  binding to NRs (ER, RARα LBDs): cannot bind NRs
[1]
  binding to GST-CBP in vitro: did not show any binding
GAL-CBP
  interaction with GAL-CBP, two hybrid: not
[2]
  binding result: no binding
